Measurements as given in paper PMC2592692.
Residue numbers refer to the chain shown, from its start. Numbers in names are those of the source. One block for each molecule: values may come before it.

Tests used:
[1] = target: microtubules (purified tubulin, polymerised in buffer); test: TIRF of Eg5-GFP on immobilised GMPCPP microtubules; settings: reference: wild-type Eg5-GFP, Cdk1-treated; sites T937
[2] = target: Alexa-568 labeled microtubules (paclitaxel-stabilised) (UniProt P02550)
[3] = target: spindle microtubules in Xenopus egg extract (Xenopus laevis (endogenous in egg extract)); test: fluorescence microscopy of fixed spindles (GFP intensity per TAMRA-tubulin intensity); endogenous Eg5 immunodepleted from Xenopus egg extract and replaced by recombinant Eg5-GFP constructs; spindle structures fixed after 45 min, spun onto coverslips; ratios normalised to 1 at 460 nM Eg5-GFP

UniProt P02550, sequence (P02550 whole entry, looked up): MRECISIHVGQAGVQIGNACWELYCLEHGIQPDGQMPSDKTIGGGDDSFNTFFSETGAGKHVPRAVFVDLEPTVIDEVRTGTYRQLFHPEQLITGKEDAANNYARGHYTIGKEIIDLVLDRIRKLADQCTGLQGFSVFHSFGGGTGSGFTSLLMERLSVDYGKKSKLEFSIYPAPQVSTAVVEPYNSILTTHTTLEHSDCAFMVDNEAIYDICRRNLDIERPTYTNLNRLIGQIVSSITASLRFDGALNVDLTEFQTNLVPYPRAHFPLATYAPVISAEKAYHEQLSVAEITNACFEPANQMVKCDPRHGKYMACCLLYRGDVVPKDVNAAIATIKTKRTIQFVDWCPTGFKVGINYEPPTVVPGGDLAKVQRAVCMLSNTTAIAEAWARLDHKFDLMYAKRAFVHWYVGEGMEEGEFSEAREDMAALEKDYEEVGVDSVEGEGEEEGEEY

- other: mean GFP intensity on microtubules at 15 nM Eg5 [1]: weaker; reference 1226±39
Molecule: Eg5 1-1067 Eg5T937A-GFP, Cdk1-treated

- velocity in microtubule gliding assay (surface-adsorbed motor, 21°C) [2]: 1.7 µm/min
B1: Eg5 phosphorylated at threonine 937 by Cdk1/cyclin B in vitro (natural protein)
chain: MSSQNSFMASKKEDKGKNIQVVVRCRPFNQLERKASSHSVLECDSQRKEVYVRTGEVNDKLGKKTYTFDMVFGPAAKQIEVYRSVVCPILDEVIMGYNCTIFAYGQTGTGKTFTMEGERSSDEEFTWEQDPLAGIIPRTLHQIFEKLSENGTEFSVKVSLLEIYNEELFDLLSPSPDVGERLQMFDDPRNKRGVIIKGLEEISVHNKDEVYHILERGAARRKTASTLMNAYSSRSHSVFSVTIHMKETTVDGEELVKIGKLNLVDLAGSENIGRSGAVDKRAREAGNINQSLLTLGRVITALVERTPHIPYRESKLTRILQDSLGGRTKTSIIATVSPASINLEETVSTLDYANRAKSIMNKPEVNQKLTKKALIKEYTEEIERLKRELAAAREKNGVYLSSENYEQLQGKVLSQEEMITEYTEKITAMEEELKSISELFADNKKELEECTTILQCKEKELEETQNHLQESKEQLAQESFVVSAFETTEKKLHGTANKLLSTVRETTRDVSGLHEKLDRKKAVDQHNFQVHENFAEQMDRRFSVIQRTVDDYSVKQQGMLDFYTNSIDDLLGASSSRLSATASAVAKSFASVQETVTKQVSHSVEEILKQETLSSQAKGDLQQLMAAHRTGLEEALRSDLLPVVTAVLDLNSHLSHCLQNFLIVADKIDSHKEDMNSFFTEHSRSLHKLRLDSSSALSSIQSEYESLKEDIATAQSMHSEGVNNLISSLQNQLNLLGMETQQQFSGFLSKGGKLQKSVGSLQQDLDLVSSEAIECISSHHKKLAEQSQDVAVEIRQLAGSNMSTLEESSKQCEKLTSSINTISQESQQWCESAGQKIDSVLEEQVCYLHSSKKHLQNLHKGVEDSCGSSVVEITDRVNAQRQAEEKALTSLVEQVRDDQEMVGEQRLELQEQVQSGLNKVHSYLKEELRNDVPTGTTPQRRDYAYPSLLVKTKPRDVLLEQFRQQQQEYLESISSVISEAVEPPVEQDSLEDEPPVAVNDSVISERSCIDLSMTCQEKGGIRFFQQKKALRKEKENRGNTTLLERSKIMDEVDQALTKSKLPLRMQN
modifications: phosphothreonine at 937 (degree of phosphorylation 87.9% per polypeptide chain)

- velocity in microtubule gliding assay relative to wild-type Eg5, with or without Cdk1/cyclin B [2]: 88%
B2: Eg5_(T937A) (non-phosphorylatable mutant of full-length Xenopus laevis Eg5) (natural protein)
chain: B1 chain with T937A

- velocity in microtubule gliding assay (surface-adsorbed motor, 21°C) [2]: 1.8 µm/min
B3: Eg5 (wild-type full-length Xenopus laevis Eg5), not phosphorylated (natural protein)
chain: B1 chain

- fold lower amount bound than wild-type Eg5-GFP, at endogenous concentration [3]: 20 fold
B4: Eg5_(T937A)-GFP (non-phosphorylatable mutant of Xenopus laevis Eg5 with C-terminal GFP) (natural protein)
chain: B1 chain with T937A
